{
  "source": "paper PMC10216065",
  "about": "(Biomolecules, 2023)",
  "binders": {"B1": {"name": "Mycobacterium tuberculosis SufS (Rv1464) (enzyme)", "chain": "GMTASVNSLDLAAIRADFPILKRIMRGGNPLAYLDSGATSQRPLQVLDAEREFLTASNGAVHRGAHQLMEEATDAYEQGRADIALFVGADTDELVFTKNATEALNLVSYVLGDSRFERAVGPGDVIVTTELEHHANLIPWQELARRTGATLRWYGVTDDGRIDLDSLYLDDRVKVVAFTHHSNVTGVLTPVSELVSRAHQSGALTVLDACQSVPHQPVDLHELGVDFAAFSGHKMLGPNGIGVLYGRRELLAQMPPFLTGGSMIETVTMEGATYAPAPQRFEAGTPMTSQVVGLAAAARYLGAIGMAAVEAHERELVAAAIEGLSGIDGVRILGPTSMRDRGSPVAFVVEGVHAHDVGQVLDDGGVAVRVGHHCALPLHRRFGLAATARASFAVYNTADEVDRLVAGVRRSRHFFGRA"}},
  "key": {"[1]": {"biological_target": "B1", "assay": "crystal structure", "settings": "both partners purified"}, "SEC-MALS": {"biological_target": "the molecule itself", "assay": "SEC-MALS"}},
  "data": [
    {"binder": "Mycobacterium tuberculosis SufU (Rv1465), tag state not told (natural protein) GSHMVTLRLEQIYQDVILDHYKHPQHRGLREPFGAQVYHVNPICGDEVTLRVALSEDGTRVTDVSYDGQGCSISQAATSVLTEQVIGQRVPRALNIVDAFTEMVSSRGTVPGDEDVLGDGVAFAGVAKYPARVKCALLGWMAFKDALAQASEAFEEVTDERNQRTG", "values": [
      {"measurement": "binding result", "setting": "[1]", "value": "binds"}
    ]},
    {"binder": "B1", "values": [
      {"measurement": "stoichiometry N", "setting": "SEC-MALS", "value": 2}
    ]}
  ]
}
